In this assay the target is streptavidin 2 (Sav2) (Streptomyces avidinii).

What is called stoichiometry N is the number of molecules, sites or subunits per partner or assembly. Take “streptavidin 2 (Sav2) (domain or fragment)”: the stoichiometry N stood at 4.
